Test results reported in PMC9765508, “Metabolic Promiscuity of an Orphan Small Alarmone Hydrolase Facilitates Bacterial Environmental Adaptation” (mBio, 2022).

How the values were obtained:
B. subtilis Rel = molecular target: T1, B. subtilis Rel (Bacillus subtilis, UniProt O54408); assay: […]-labelled nucleotide hydrolysis, TLC; format: biochemical; details: 20 mM Tris-HCl pH 7.5, 1 mM MnCl2, 37 °C, 240 nM enzyme; labelled compound
T1 construct: gene relA; purified; construct and tag not described

[1] = test system: Nc1ncnc2c1ncn2[C@@H]1O[C@H](COP(=O)(O)OP(=O)(O)OP(=O)(O)O)[C@@H](OP(=O)(O)OP(=O)(O)O)[C@H]1O; assay: purified protein; format: biochemical, Xanthomonas campestris; details: 20 mM Tris-HCl pH 7.5, 1 mM MnCl2, 37 °C, 25 nM enzyme
[2] = test system: Nc1nc2c(ncn2[C@@H]2O[C@H](COP(=O)(O)O)[C@@H](OP(=O)(O)OP(=O)(O)O)[C@H]2O)c(=O)[nH]1; assay: purified protein; format: biochemical, Xanthomonas campestris; details: 20 mM Tris-HCl pH 7.5, 1 mM MnCl2, 37 °C, 50 nM enzyme
[3] = test system: Nc1nc2c(ncn2[C@@H]2O[C@H](COP(=O)(O)OP(=O)(O)O)[C@@H](OP(=O)(O)OP(=O)(O)O)[C@H]2O)c(=O)[nH]1; assay: purified protein; format: biochemical, Xanthomonas campestris; details: 20 mM Tris-HCl pH 7.5, 1 mM MnCl2, 37 °C, 50 nM enzyme
[4] = test system: Nc1nc2c(ncn2[C@@H]2O[C@H](COP(=O)(O)OP(=O)(O)OP(=O)(O)O)[C@@H](OP(=O)(O)OP(=O)(O)O)[C@H]2O)c(=O)[nH]1; assay: purified protein; format: biochemical, Xanthomonas campestris; details: 20 mM Tris-HCl pH 7.5, 1 mM MnCl2, 37 °C, 50 nM enzyme
[5] = substrate: NC(=O)C1=CN([C@@H]2O[C@H](COP(=O)(O)OP(=O)(O)OC[C@H]3O[C@@H](n4cnc5c(N)ncnc54)[C@H](OP(=O)(O)O)[C@@H]3O)[C@@H](O)[C@H]2O)C=CC1; assay: phosphate release, malachite green assay, Michaelis-Menten fit; format: biochemical, Xanthomonas campestris; details: 20 mM Tris-HCl pH 8, 1 mM MnCl2, 37 °C, 1 μM enzyme
Excerpt: phosphate release, malachite green assay, Michaelis-Menten fit on XccSAH

T1 sequence (O54408 whole entry): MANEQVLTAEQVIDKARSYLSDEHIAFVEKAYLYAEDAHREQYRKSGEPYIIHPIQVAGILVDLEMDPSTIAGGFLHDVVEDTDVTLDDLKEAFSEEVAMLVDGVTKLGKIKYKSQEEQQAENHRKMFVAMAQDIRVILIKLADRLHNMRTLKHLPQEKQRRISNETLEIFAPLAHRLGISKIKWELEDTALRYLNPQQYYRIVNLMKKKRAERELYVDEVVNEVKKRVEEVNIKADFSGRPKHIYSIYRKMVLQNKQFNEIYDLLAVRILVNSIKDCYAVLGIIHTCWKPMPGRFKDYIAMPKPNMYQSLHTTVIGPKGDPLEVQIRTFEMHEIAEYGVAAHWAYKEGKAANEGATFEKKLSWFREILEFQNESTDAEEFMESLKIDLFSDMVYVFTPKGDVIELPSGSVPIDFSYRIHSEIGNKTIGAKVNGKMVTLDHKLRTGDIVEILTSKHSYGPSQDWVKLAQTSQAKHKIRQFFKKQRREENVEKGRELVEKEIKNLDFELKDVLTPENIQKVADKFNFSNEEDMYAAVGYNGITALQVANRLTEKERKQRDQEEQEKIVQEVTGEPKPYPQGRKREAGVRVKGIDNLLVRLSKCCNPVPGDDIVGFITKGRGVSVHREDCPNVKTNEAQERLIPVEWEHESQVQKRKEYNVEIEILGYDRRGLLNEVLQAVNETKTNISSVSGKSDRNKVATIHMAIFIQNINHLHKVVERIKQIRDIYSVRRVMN

## Nc1nc2c(ncn2[C@@H]2O[C@H](COP(=O)(O)O)[C@@H](OP(=O)(O)OP(=O)(O)O)[C@H]2O)c(=O)[nH]1 [pGpp]
B. subtilis Rel
  32P-labelled nucleotide hydrolysis, TLC: We found that B. subtilis Rel could also hydrolyze pGpp to GMP

## XccSAH (Xanthomonas campestris pv. campestris str. ATCC 33913)
[1]
  Km: 45.82 ± 3.87 µM
  Vmax: 73.1 µM/min
  kcat: 48.8 ± 2.99 s⁻¹
  kcat/Km: 1.07e+06 ± 75000 M⁻¹ s⁻¹
[2]
  Km: 19.73 ± 4.75 µM
  Vmax: 4.89 µM/min
  kcat: 1.63 ± 0.07 s⁻¹
  kcat/Km: 86000 ± 18000 M⁻¹ s⁻¹
[3]
  Km: 14.13 ± 2.02 µM
  Vmax: 21 µM/min
  kcat: 6.99 ± 0.15 s⁻¹
  kcat/Km: 500000 ± 82000 M⁻¹ s⁻¹
[4]
  Km: 29.14 ± 4.41 µM
  Vmax: 42.9 µM/min
  kcat: 14.3 ± 1.45 s⁻¹
  kcat/Km: 493000 ± 25000 M⁻¹ s⁻¹

B1: XccSAH (Xanthomonas campestris pv. campestris str. ATCC 33913) (protein)
chain: MTALTERYAQAVDYARIAHAGQLRKGTQIPYLSHLLGVSTLVLECGGDEDQAIAGLLHDVVEDCGGGHEGSIRAQFGDAVADIVMACTDATAEDKADVDNTASARKRDWRERKQSYLAHLRKTPERALLVSGCDKLYNARTIVQDLENPDVGQEIFNVFTAGRDGTLWYYAALEEIFRTRKAATARLFSGVVARMQALADSSIDTVPAHAVA
[5]
  Km: 132.2 ± 39.09 µM
  Vmax: 2.88 µM/min
  kcat: 0.048 ± 0.004 s⁻¹
  kcat/Km: 363 ± 20 M⁻¹ s⁻¹
